Assay results taken from patent KR20230066722A (dated 2023).

Target: S275F RSV F protein (Synagis-resistant RSV antigen) (respiratory syncytial virus, UniProt P03420 26-524)
Experiment: ratio of the ELISA Kd values, reference 11L

B1: RSV Protein-1A12 Ab (antibody, V domains shown)
VH: EVQLVESGGGLVQPGGSLRLSCAASGFTFTSSWMSWVRQAPGKGLEWVSEIDGYNGSTYYADSVKGRFTISRDNSKNTLYLQMNSLRAEDTAVYYCARTVPWWGMDYWGQGTLVTVSS
VL: DIQMTQSPSSLSASVGDRVTITCRASQNISNYLAWYQQKPGKAPKLLIYLASSLESGVPSRFSGSGSGTDFTLTISSLQPEDFATYYCQQANSPPRTFGQGTKVEIK
notes: The ELISA detected the antibody with anti-human IgG Fc-HRP, so a human Fc is implied; also called 항체 1A12; 1A12 항체
fold higher affinity for S275F than for 11L: ~15 배 (fold)
